Reference: the supplement of paper PMC7125110
± gives the standard error. Variants at the floor of the assay were thinned out.

B1: glmS ribozyme (parent)
chain: AUAAAAGCGCCAGAACUACAGAAAUGUAGUUGACGAGGAGGAGGUUUAUCGAAUUUUCGGCGGAUGCCUCCAAA

Tests used:
Conditions in all cases: with glucosamine-6-phosphate
[1] = variants of: B1; experiment: self-cleavage kobs at 640 uM GlcN6P; higher = faster cleavage; RNA array
In short: (§1)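 Glucosamine-6-phosphate in HEPES/KCl/Mg(OAc)2 buffer, at 40 μM to 10 mM, was flowed over barcoded ribozyme variants transcribed in situ by E. coli RNA polymerase on sequenced MiSeq chips. Tracking was through a hybridised Cy3 probe at 37 °C. kobs, kcat and KM came from exponential decay fits and weighted Michaelis–Menten fits of normalised per-tile medians.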

[2] = variants of: B1; experiment: self-cleavage kobs at 2500 uM GlcN6P; higher = faster cleavage; RNA array
In short: as §1

[3] = variants of: B1; experiment: self-cleavage kobs at 10000 uM GlcN6P; higher = faster cleavage; RNA array
In short: as §1

Row | Variant | self-cleavage kobs at 640 uM GlcN6P [1] [s⁻¹] | self-cleavage kobs at 2500 uM GlcN6P [2] [s⁻¹] | self-cleavage kobs at 10000 uM GlcN6P [3] [s⁻¹]
1 | AUAAAAGCGCCAGAACUACAGAAAUUUAGUCGACGAGGAGGAGGUUAAUCGAAUUUUCGGCGGGUGCCUCCAAA | 0.000213 ± 6.9e-05 | – | –
2 | AUAAAAGCGCCAGAAGUACAGAAAUGUAGUUGACGAGGAGGAGGUUUAUCGAAUUCUUGGCGGAUGCCUCCAAA | < 1e-05 | – | –
3 | AUAAAAGCGCCAGAACUACAUAAAUGUAGUUGACGAGGAGGAGGUUGAUCGAAUUUUCGGCGGAUGCCUCCAAA | 0.00247 ± 0.00049 | – | –
4 | AUAAAAGCGCCAGAACUACAUAAAUUUAGUUGACGAGGAGGAGGUUUAUCGAAUUUUCGGCGGAGUCCGCCAAA | 0.000207 ± 8.9e-05 | – | –
5 | AUAAAAGCGCCAGAACUACAGACAUGUAGUUGACGAGGAGGAGGUUUAUCGAAUUUUCGGCGGAUGCUUCCAAA | 0.00205 ± 0.00047 | 0.00111 ± 0.00026 | –
6 | AUAAAAGCGCCAGAACUACAGAAAUGUAAUUGACGAGGGGGAGGUUUAUCGAAAUUUCGGCGGAUGCCUCCAAA | 0.00173 ± 0.00059 | 0.00457 ± 0.0012 | –
7 | AUAAAAGCGCCAGAACUAAAGAAAUGUAGUUGUCGAGGAGGAGGUUUAUCGAAUUUUCGGCGGAUGCCUCCAAA | 4.59e-05 ± 2.2e-05 | 0.000114 ± 2.6e-05 | –
8 | AUAAAAGCGCCAGAACCACAGAAAUGUAGUUGACGAGGAGGAGUUUCAUCGAAUUUUCGGCGGAUGCCUCCAAA | < 1e-05 | – | –
9 | AUAAAAGCGCCAGAAUUACAGAAAUGUAGUCCACGAGGAGGAGAUUUAGCGAAUUUUCGGGGGAAGCCUCCAAA | < 1e-05 | < 1e-05 | –
10 | AUAAAAGCGCCAGAAGUACAGAAAUGUAGUGGACGAGGAGGAGGUUUAUCGAAGUUUCGGCGGAUGCCUCCAAA | 0.000146 ± 3.7e-05 | 0.000327 ± 5.9e-05 | –
11 | AUAAAAGCGCCAGAAUUACAGAAAUGUAGUUGGCGAGGAGGAGGUUUAUUGAAGUUUCGGCGGAUGCCUCCAAA | < 1e-05 | < 1e-05 | < 1e-05
12 | AUAAAAGCGCCAGAAUUACAGAAAUGUAGUUGACGAGGAGGAGGUUUAUCGAAUUUUCGUGGGAUGCCUCCAAA | < 1e-05 | – | –
13 | AUAAAAGCGCCAGAAUUACAGAAAUGUAGUUGACGAGGGGGAGGUUUAUCGAAUCUUCGGCGGAUGCCUCCAAA | 0.0143 ± 0.0027 | – | –
14 | AUAAAAGCGCCAGAAUUACAGAAAUGUAGUUGACGAGGGAGGAGGUUAUCGAAUUUUCGGCGGAUGCCUCCAAA | 0.00638 ± 0.0016 | 0.0072 ± 0.0024 | –
15 | AUAAAAGCGCCAGAACUACAGAACUGUAGUUGACGAGGAGGAGGUUUAUCGUAUUUUCAGCGGAUGCCUCCAAA | < 1e-05 | – | < 1e-05
16 | AUAAAAGCGCCAGAAUUACAGAAAUGUAGUUGACGAGGAGGAGGUAUAUCGUAUUUUCGGCGGAUGCCUCCAAA | < 1e-05 | – | –
17 | AUAAAAGCGCCAGAAGUACAGAAAUGUAGAUGACGAGGAGGAGGUUUAUCGAAUGUUCGGCGGAUGCCUCCAAA | 0.000125 ± 5.7e-05 | 8.11e-05 ± 3.1e-05 | –
18 | AUAAAAGCGCCAGAAUUACAGAAAUGUAGUUUACGAGGAGGAGGUUUAUCGAAUUUUGGGCGGAUGCCUCCAAA | 0.00017 ± 3.4e-05 | – | –
19 | AUAAAAGCGCCAGAAGUACAGAAAUGUAGUUGACGAGGAGCAGGUUUAUCGAAUUUUCGGCAGGUGCCUCCAAA | < 1e-05 | < 1e-05 | –
20 | AUAAAAGCGCCAGAACUACAGAAAUGUAAUUGAUGAGGAGGAGCUUUAUCGAUUUUUCGGCGGAUGCUUCCAAA | < 1e-05 | – | –
21 | AUAAAAGCGCCAGAAUUACAGAAAUGUAGUUGCCGAGGAGGAGGUUUAUCGAAUUUUCGGCGGAUGCCUCCAAA | 9.7e-05 ± 3.1e-05 | 8.5e-05 ± 2.1e-05 | 0.000247 ± 3.7e-05
22 | AUAAAAGCGCCAGAAUUACAGAAAUGUAGUUGACGAGGAGGAGGUUUAUCAAAUUUUCGGCGAAUACCUCCAAA | < 1e-05 | – | –
23 | AUAAAAGCGCCAGAAUUACAGAAAUGUAGUUGACGAGGUGGAGGUUUAUCGAAUUUUCGGCGGAUUCCUCCAAA | 0.000779 ± 0.00014 | 0.00146 ± 0.00036 | –
